Measurements reported in patent publication US20040253632A1.
Like-named read-outs stand apart in the source and are kept apart here.

Legend:
[1] = biological target: DO11.10 scTCR/murine IgG2b fusion molecule (mouse) (UniProt P01867); experiment: sandwich ELISA on supernatant of COS-7 cells co-transfected with both fusions; goat anti-murine kappa capture, anti-murine IgG2b-HRP detection, A450
[2] = biological target: DO11.10 TCR (endogenous T cell receptor of the DO11.10 T cell hybridoma); experiment: cell-based or functional assay
[3] = biological target: DO11.10 scTCR/murine CD3ζ fusion molecule (membrane-bound, on transfected cells) (mouse) (UniProt P24161); experiment: cell-based or functional assay
[4] = biological target: DO11.10 TCR (endogenous T cell receptor of the DO11.10 T cell hybridoma); experiment: cell-based or functional assay; remark: listed apart in the source

Chain of UniProt P24161 (P24161 whole entry, the tested form may be a part): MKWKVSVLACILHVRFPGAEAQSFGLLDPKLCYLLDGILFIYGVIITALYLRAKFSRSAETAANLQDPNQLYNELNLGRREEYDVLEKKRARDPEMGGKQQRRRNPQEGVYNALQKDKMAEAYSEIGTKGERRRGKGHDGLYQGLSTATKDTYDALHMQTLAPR
Chain of UniProt P01867 (P01867 other isoform, or with tags, fused parts or gaps): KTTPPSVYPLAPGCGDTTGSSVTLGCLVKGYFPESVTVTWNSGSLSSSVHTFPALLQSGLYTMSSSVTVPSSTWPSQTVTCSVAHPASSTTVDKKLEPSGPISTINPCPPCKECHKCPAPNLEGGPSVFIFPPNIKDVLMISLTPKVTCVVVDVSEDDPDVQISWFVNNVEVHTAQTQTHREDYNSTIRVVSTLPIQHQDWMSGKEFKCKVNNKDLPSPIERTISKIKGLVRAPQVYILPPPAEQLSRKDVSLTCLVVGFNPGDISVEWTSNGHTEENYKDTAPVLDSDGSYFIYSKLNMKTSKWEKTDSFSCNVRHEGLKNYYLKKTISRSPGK

Substance “DO11.10 scTCR/murine kappa fusion molecule” has an absorbance relative to the negative control (fold) [1] of 40 fold.
For “monovalent scIA^d/OVA-BirA complexes (monomer, no avidin) (peptide-MHC)”, the IL-2 ELISA value; DO11.10 cells; 31 ng complex/well [2] was 0.242 A450, the IL-2 ELISA value; DO11.10 cells; 62 ng complex/well [2] was 0.398 A450 and the IL-2 ELISA value; DO11.10 cells; 125 ng complex/well [2] was 0.513 A450. For the same substance, the IL-2 ELISA value; DO11.10 cells; 500 ng complex/well [2] was 1.05 A450 and the IL-2 ELISA value; DO11.10 cells; 1000 ng complex/well [2] was 1.16 A450.
“multi-valent scIA^d/OVA-BirA complexes (biotinylated scIA^d/OVA-BirA bound to avidin) (from UniProt P02701 25-152) (peptide-MHC)” gave an IL-2 ELISA value; DO11.10 cells; 31 ng complex/well [2] of 0.554 A450, an IL-2 ELISA value; DO11.10 cells; 62 ng complex/well [2] of 0.744 A450 and an IL-2 ELISA value; DO11.10 cells; 125 ng complex/well [2] of 0.916 A450. It also gave an IL-2 ELISA value; DO11.10 cells; 500 ng complex/well [2] of 1.6 A450 and an IL-2 ELISA value; DO11.10 cells; 1000 ng complex/well [2] of 1.86 A450.
Substance “scIA^d/GD-IgG multimer (scIA^d/GD-Cκ fusion with scIA^d/GD-IgG2b heavy chain fusion) (peptide-MHC)” has an IL-2 ELISA value; DO11.10 T cells; 12.5 ng complex/well [2] of 0.159 A405, an IL-2 ELISA value; DO11.10 T cells; 25 ng complex/well [2] of 0.166 A405 and an IL-2 ELISA value; DO11.10 T cells; 50 ng complex/well [2] of 0.155 A405. It also gave an IL-2 ELISA value; DO11.10 T cells; 100 ng complex/well [2] of 0.166 A405.
In the case of “scIA^d/GD-IgM fusion (scIA^d/GD fused to CH2-CH3-CH4 of human IgM heavy chain), multi-valent (from UniProt P01871 106-453) (peptide-MHC)”, the IL-2 ELISA value; DO11.10 T cells; 0.3 ng complex/well [2] is reported as 0.189 A405, the IL-2 ELISA value; DO11.10 T cells; 1 ng complex/well [2] is reported as 0.184 A405 and the IL-2 ELISA value; DO11.10 T cells; 4 ng complex/well [2] is reported as 0.179 A405. It also gave an IL-2 ELISA value; DO11.10 T cells; 11 ng complex/well [2] of 0.188 A405, an IL-2 ELISA value; DO11.10 T cells; 33 ng complex/well [2] of 0.206 A405 and an IL-2 ELISA value; DO11.10 T cells; 100 ng complex/well [2] of 0.221 A405. For the same substance, the IL-2 ELISA value; DO11.10 T cells; 300 ng complex/well [2] was 0.248 A405, the IL-2 ELISA value; BWDZ:CD4+ transfectants; 40 ng complex/well [3] was 0.282 A405 and the IL-2 ELISA value; BWDZ:CD4+ transfectants; 200 ng complex/well [3] was 0.309 A405. The IL-2 ELISA value; BWDZ:CD4+ transfectants; 1000 ng complex/well [3] was 0.375 A405, the IL-2 ELISA value; DO11.10 scTCR 2B4 transfectants; 1 ng complex/well [3] was 0.196 A405 and the IL-2 ELISA value; DO11.10 scTCR 2B4 transfectants; 3 ng complex/well [3] was 0.19 A405. It also gave an IL-2 ELISA value; DO11.10 scTCR 2B4 transfectants; 7 ng complex/well [3] of 0.213 A405, an IL-2 ELISA value; DO11.10 scTCR 2B4 transfectants; 15 ng complex/well [3] of 0.199 A405 and an IL-2 ELISA value; DO11.10 scTCR 2B4 transfectants; 31 ng complex/well [3] of 0.226 A405. For the same substance, the IL-2 ELISA value; DO11.10 scTCR 2B4 transfectants; 62 ng complex/well [3] was 0.224 A405, the IL-2 ELISA value; DO11.10 scTCR 2B4 transfectants; 125 ng complex/well [3] was 0.233 A405 and the IL-2 ELISA value; DO11.10 scTCR 2B4 transfectants; 250 ng complex/well [3] was 0.224 A405. The IL-2 ELISA value; DO11.10 T cells; 1 ng complex/well [4] was 0.153 A405, the IL-2 ELISA value; DO11.10 T cells; 3 ng complex/well [4] was 0.14 A405 and the IL-2 ELISA value; DO11.10 T cells; 7 ng complex/well [4] was 0.148 A405. The IL-2 ELISA value; DO11.10 T cells; 15 ng complex/well [4] was 0.14 A405, the IL-2 ELISA value; DO11.10 T cells; 31 ng complex/well [4] was 0.165 A405 and the IL-2 ELISA value; DO11.10 T cells; 62 ng complex/well [4] was 0.157 A405. The IL-2 ELISA value; DO11.10 T cells; 125 ng complex/well [4] was 0.18 A405 and the IL-2 ELISA value; DO11.10 T cells; 250 ng complex/well [4] was 0.193 A405.
